Experimental data from PMC6598382.

Columns and labels:
[1] = substrate: C/C=C/C=C/C(=O)c1cc(C)c(O)c(C)c1O; experiment: steady-state Michaelis-Menten kinetics; assay type: biochemical, Penicillium rubens; conditions: native substrate
[2] = substrate: C/C=C/COC(=O)c1cc(C)c(O)c(C)c1O; experiment: steady-state Michaelis-Menten kinetics; assay type: biochemical, Penicillium rubens

B1: SorbC (Penicillium rubens Wisconsin 54-1255) (protein)
chain: MTRSANSPFEVAIVGGGITGLALAVGLLKRNVSFTIYERAENFGELGVGITFTPNAQRAMEALDPCVLQSFTNVASAPSGGTINFVDGVREQGSEDPRTSTAALLFQLHVKGGYKACRRCDFVDQIVQHIPKDCVQYRKWLDSIETDHESGRAVLKFRDGEIAHADVVIGCDGIRSQVRASMFGTDELCPRAQYSHQLGYRGMVPLAQATAVLGPEKTSSAVLHTGPGAFVLTIPLAEVHAMHIEAFIMDKEEWPEVQTSSDSKRYVLPATRNEATKAFAEFGPTVRSAVSMFPEKLEKWAVFDMLEAPVPTFAKGRVCLAGDAAHASTPNQGGGAGFGIEDALVLAEVLAVLAEAPNVSGIVASEALAVYSEVRYERSQWLVRSSRRTGELCTWKDRDWGLAAEELSRDIISRSHQLWDHDTAGMVSDALAILGERVRGADTAF
- Km [1]: 38.6 ± 1.7 µM
- Km [2]: 17.3 ± 0.7 µM
